According to doi:10.1101/2020.03.10.985069 (2020):

How the values were obtained:
A11/IL-10Rα complex = A11/IL-10Rα complex (human (by the printed UniProt entry …, UniProt P22301 19-178; Q13651 22-235); assay: SPR; pre-bound to IL-10Rα
B11/IL-10Rα complex = B11/IL-10Rα complex (human (by the printed UniProt entry …, UniProt P22301 19-178; Q13651 22-235); assay: SPR; pre-bound to IL-10Rα
R5A11/IL-10Rα complex = R5A11/IL-10Rα complex (human (by the printed UniProt entry …, UniProt P22301 19-178; Q13651 22-235); assay: SPR; pre-bound to IL-10Rα
[1] = biological target: high affinity IL-10 monomer R5A11M, recombinant (human (by the printed UniProt entry …, UniProt P22301 19-178)); assay: SPR
[2] = biological target: IL-10 variant B11, recombinant monomer (human (by the printed UniProt entry …, UniProt P22301 19-178)); assay: SPR
[3] = biological target: IL-10 variant A11, recombinant monomer (human (by the printed UniProt entry …, UniProt P22301 19-178)); assay: SPR

B1: IL-10Rβ ectodomain (amino acids 20-220), biotinylated (receptor)
chain: MVPPPENVRMNSVNFKNILQWESPAFAKGNLTFTAQYLSYRIFQDKCMNTTLTECDFSSLSKYGDHTLRVRAEFADEHSDWVNITFCPVDDTIIGPPGMQVEVLADSLHMRFLAPKIENEYETWTMKNVYNSWTYNVQYWKNGTDEKFQITPQYDFEVLRNLEPWTTYCVQVRGFLPDRNKAGEWSEPVCEQTTHDETVPS
modifications: biotin on the biotin acceptor peptide (BirA ligase)
For B1, the Kd (A11/IL-10Rα complex) was 23 nM, the Kd (B11/IL-10Rα complex) was 65 nM and the Kd (R5A11/IL-10Rα complex) was 100 nM. It also gave a Kd [1] of 8900 nM, a Kd [2] of 9400 nM and a Kd [3] of 2400 nM.
